T1: Flavobacterium johnsoniae FjXAL tyrosine ammonia lyase (Protein GI 146298870), SEQ ID NO: 1, His-tagged (N-terminal tag SEQ ID NO: 11) (Flavobacterium johnsoniae, UniProt A5FKY3)
T1 sequence (A5FKY3 1-506): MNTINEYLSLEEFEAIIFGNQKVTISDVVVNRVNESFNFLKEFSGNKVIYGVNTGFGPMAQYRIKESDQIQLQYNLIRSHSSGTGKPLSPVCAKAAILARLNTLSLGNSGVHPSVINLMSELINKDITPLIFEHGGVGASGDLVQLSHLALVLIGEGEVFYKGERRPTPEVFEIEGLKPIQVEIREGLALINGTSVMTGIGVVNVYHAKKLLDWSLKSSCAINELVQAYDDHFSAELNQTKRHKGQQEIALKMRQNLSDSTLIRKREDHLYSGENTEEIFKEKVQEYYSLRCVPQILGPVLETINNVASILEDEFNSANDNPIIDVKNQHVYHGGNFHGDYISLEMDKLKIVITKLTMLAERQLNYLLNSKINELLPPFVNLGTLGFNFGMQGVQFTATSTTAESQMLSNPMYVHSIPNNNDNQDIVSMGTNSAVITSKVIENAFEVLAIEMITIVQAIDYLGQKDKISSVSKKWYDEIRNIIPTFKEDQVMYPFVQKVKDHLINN


Assays:
[1] = target: T1, Flavobacterium johnsoniae FjXAL tyrosine ammonia lyase (Protein GI 146298870), SEQ ID NO: 1, His-tagged (N-terminal tag SEQ ID NO: 11); experiment: In vitro kinetics of purified His-tagged FjXAL (tyrosine/phenylalanine ammonia lyase activity, absorbance at 315/295 nm); format: biochemical
Experimental: (§1) The tyrosine ammonia lyase activity may for instance be determined in accordance to the following method: Enzymatic assays are performed in 200 μL volumes in wells in a UV transparent 96-well plate, by following the increase in absorbance at 315 nm (pHCA) using spectrophotometry or HPLC with UV detection. The reaction mixtures contain 2 μg of purified protein and are initiated by adding 1 mM tyrosine or 6 mM after equilibration to 30° C. The enzymatic activity is calculated as U/g, where U is defined as μmol substrate converted per minute. Negative controls contain no purified protein. Kinetic constants Km and vmax are determined from assays containing 1.56 μM to 200 μM tyrosine. See also Kyndt et al. (2002).
Four of the enzymes were further purified by His-tag purification as follows. A DNA linker (5′ phosphorylated oligonucleotides CBJP559 and CBJP560, Table 5) was inserted in place of the sequence between the NdeI and BgIII site in plasmid pCDFDuet-1. This would result in the addition of the amino acids MAHHHHHHENLYFQ (SEQ ID NO: 11) to the N-terminal end of the polypeptides. […]
(§2) Enzymatic assays were performed in 200 μL volumes in wells in a UV transparent 96-well plate, by following the increase in absorbance at 315 nm (pHCA) or 295 nm (CA). […] The enzymatic activity was calculated as U/g, where U is defined as μmol substrate converted per minute.

[2] = test system: E. coli BL21(DE3)pLysS cells; experiment: Specific production of pHCA and CA by E. coli expressing TAL/PAL enzymes; format: cell-based, Escherichia coli; conditions: 24 h after supplementation, +/- standard deviation
Experimental: Plasmids carrying the genes were transformed into electrocompetent E. coli BL21(DE3)pLysS cells (Life Technologies) and selected on LBplates containing 50 ug/mL streptomycin. The strains were grown in M9 minimal media containing glucose as a carbon source, and expression was induced by adding 1 mM IPTG at an optical density at 600 nm of 0.6. After three hours of growth at 30° C. the cultures were supplemented with 2 mM tyrosine, phenylalanine or histidine. After further 24 hours, samples were withdrawn for determination of the optical density at 600 nm and for the isolation of the supernatant.
The concentration of pHCA and CA in the supernatant was quantified by high performance (HPLC) and compared to chemical standards. HPLC was done on a Thermo setup using a HS-F5 column and mobile phases: 5 mM ammonium formate pH 4.0 (A) and acetonitrile (B) at 1.5 mL min-1, using a gradient elution starting at 5% B. From 0.5 min after injection to 7 min, the fraction of B increased linearly from 5% to 60%, and between 9.5 min and 9.6 the fraction of B decreased back to 5%, and remaining there until 12m pHCA and CA were quantified by measuring absorbance at 333 nm and 277 nm, respectively. The production was tested without addition of precursors or the addition of either phenylalanine or tyrosine to the growth medium.
The specific production was calculated as micromolar (μM) concentration per unit of optical density of the culture at 600 nm, and standard deviations were calculated based on triplicate experiments. HaXAL1, HaXAL2 and FjXAL are the most specific enzymes and those that reach the highest yields.

[3] = substrate: N[C@@H](Cc1ccc(O)cc1)C(=O)O; experiment: In vitro kinetics of purified His-tagged FjXAL (tyrosine/phenylalanine ammonia lyase activity, absorbance at 315/295 nm); format: biochemical, Flavobacterium johnsoniae; conditions: other: FjXAL, 30° C, 1.56 μM to 200 μM tyrosine or 193 μM to 25 mM phenylalanine, pH 7.5
Experimental: as §1
(§3) Four of the enzymes were further purified by His-tag purification as follows. A DNA linker (5′ phosphorylated oligonucleotides CBJP559 and CBJP560, Table 5) was inserted in place of the sequence between the NdeI and BgIII site in plasmid pCDFDuet-1. This would result in the addition of the amino acids MAHHHHHHENLYFQ (SEQ ID NO: 11) to the N-terminal end of the polypeptides. The resulting plasmid was amplified with primers CBJP575 and CBJP576 (table 5) and the genes were amplified and combined using the Gibson reaction (New England Biolabs). The PCR amplification used the same reverse primers as in example 1, but the forward primers matching the His-tag site of the linker (Table 5). Plasmids carrying the genes (e.g. FjXAL, FIG. 4) were transformed into electrocompetent E. coli BL21(DE3)pLysS cells (Life Technologies) and selected on LB plates containing 50 ug/mL streptomycin.
(§4) Strains expressing His-tagged versions of the enzymes were grown in LB media overnight at 37° C. and diluted into fresh LB media with 1 mM IPTG and growth was propagated overnight (approximately 18 h) at 30° C. Cells were harvested by centrifugation at 8000 rpm for 8 minutes, and disrupted by shearing into a buffer (50 mM Tris-HCl, 10 mM imidazole, 500 mM NaCl, 10% glycerol, pH 7.5). The homogenate was clarified by centrifugation at 10000 g for 10 min at 4° C., and the supernatant was loaded onto Ni2+-NTA resin column on an Äkta Pure system connected to a F9-C fraction collector (GE). Finally the fractions containing the purified polypeptide was dialyzed overnight against a buffer containing 50 mM Tris-HCl pH 7.5, 150 mM NaCl and 10% glycerol, flash-frozen in liquid nitrogen and stored at −80° C.
as §2

[4] = substrate: N[C@@H](Cc1ccccc1)C(=O)O; experiment: as above; format: biochemical, Flavobacterium johnsoniae; conditions: other: FjXAL, 30° C, 1.56 μM to 200 μM tyrosine or 193 μM to 25 mM phenylalanine, pH 7.5
Experimental: as §1, §3, §4, §2

Molecule | Kcat ([1]; 30° C, 1.56 μM to 200 μM tyrosine or 193 μM to 25 mM phenylalanine) | TAL/PAL ([1]; ratio of Kcat/Km for Tyr over Phe) | Specific production of CA ([2]; M9 + His (2 mM)) | Specific production of pHCA ([2]; M9 + His (2 mM)) | Specific production of CA ([2]; M9 + Phe (2 mM)) | Specific production of pHCA ([2]; M9 + Phe (2 mM)) | Specific production of CA ([2]; M9 + Tyr (2 mM)) | Specific production of pHCA ([2]; M9 + Tyr (2 mM)) | Km [3] | Km [4] | kcat [4] | kcat/Km [4]
N[C@@H](Cc1ccc(O)cc1)C(=O)O [Tyr, tyrosine] | 0.0212 s⁻¹ | 3000 |  |  |  |  |  |  |  |  |  | 
Flavobacterium johnsoniae FjXAL tyrosine ammonia lyase (Protein GI 146298870), SEQ ID NO: 1, His-tagged (N-terminal tag SEQ ID NO: 11) (Flavobacterium … (protein) MNTINEYLSLEEFEAIIFGNQKVTISDVVVNRVNESFNFLKEFSGNKVIYGVNTGFGPMAQYRIKESDQIQLQYNLIRSHSSGTGKPLSPVCAKAAILARLNTLSLGNSGVHPSVINLMSELINKDITPLIFEHGGVGASGDLVQLSHLALVLIGEGEVFYKGERRPTPEVFEIEGLKPIQVEIREGLALINGTSVMTGIGVVNVYHAKKLLDWSLKSSCAINELVQAYDDHFSAELNQTKRHKGQQEIALKMRQNLSDSTLIRKREDHLYSGENTEEIFKEKVQEYYSLRCVPQILGPVLETINNVASILEDEFNSANDNPIIDVKNQHVYHGGNFHGDYISLEMDKLKIVITKLTMLAERQLNYLLNSKINELLPPFVNLGTLGFNFGMQGVQFTATSTTAESQMLSNPMYVHSIPNNNDNQDIVSMGTNSAVITSKVIENAFEVLAIEMITIVQAIDYLGQKDKISSVSKKWYDEIRNIIPTFKEDQVMYPFVQKVKDHLINN |  |  | 0 ± 0 μM OD600-1 | 91 ± 20 μM OD600-1 | 0.5 ± 0.4 μM OD600-1 | 76 ± 29 μM OD600-1 | 0 ± 0 μM OD600-1 | 440 ± 100 μM OD600-1 | 0.0057 mM | 6.6 mM | 0.00817 s⁻¹ | 1.23 M⁻¹ s⁻¹

Reference: patent publication US11306331B2, “Processes for the production of hydroxycinnamic acids using polypeptides having tyrosine ammonia lyase activity” (CysBio ApS, priority 2014, dated 2022)
